Measured values: article PMC6708486 (Nature chemistry, 2019)
Where a chain is given by its changes, count along the chain named. Numbers in names are those of the source. Where “and” joins values, the source holds several entries; their conditions need not be identical. Equal entries are not always repeated.

B1: LepI (enzyme)
chain: ETVAAIKTLIQQLAQSTDQFGRAEINDALRELQYSLETPFDTVMRMSLDTCQVAVARIGSDLGLFKHLSQCASPQSAEELADHLGCGRELMSRLLRYMASVRMVQQTDDIKYISSNITQTLAVPGLEAGMRHAFENLWPVLMALPDFLAERKYPDIVDAKDTAFQKAFNTDQDCFHWLATQPTRIANFKVLLTDERTPNFLSTFPLEKELGSWSAEPEKALFVDIGGGMGHACIRLREKYPNQPGRVILQDLPPVLQAAQATLPLSGIESMPHNFHTPQPVQGAKFYFLRLILRDFPDHQALEILQNIVPAMDAESRIVIDDGVPPEKGARWAETGTDICIMSALGSKERTQRQWEELAAKAGLQLQALYQYTWPVVNAAMVFSLQ
B2: LepI (C52A) (enzyme)
chain: B1 chain with C51A

How the values were obtained:
AUC = target: the molecule itself; assay: AUC
crystal structure = target: the molecule itself; assay: crystal structure

Protein	stoichiometry N (AUC)	binding result (crystal structure)
B1	2 and 4	–
B2	–	binds
